By Kd is commonly meant the free concentration of one partner at which half of the binding sites on the other are occupied at equilibrium, for simple one-to-one binding.

Where only a bound is given, the exact number is not on record here.

For six sequences, Kd results are on record in the Immune Epitope Database (IEDB).

One assay concerns the target HLA-A*01:01. Briefly: IEDB peptide-MHC binding, purified MHC/direct/fluorescence; filed as Kd, often an IC50 or EC50 that approximates it; ≥ and ≤ were set here for values at or beyond the usual limits of such assays.
Another assay addresses HLA-A*02:01. The assay is described as above.
Another assay concerns the target HLA-A*02:03. Described as above.
In the next assay the target is HLA-A*02:11. The assay is described as above. The settings on record: source organism: Sudan ebolavirus.
For the next assay, the target named is HLA-A*02:12. The assay is described as above.
In the next assay the target is HLA-A*02:19. The description is as above. The settings on record: source organism: Sudan ebolavirus.
The next assay concerns the target HLA-A*03:01. The assay is described as above.
In the next assay the target is HLA-A*24:03. The description is as above.
Another assay deals with HLA-A*29:02. Described as above.
Another assay has as its target HLA-A*31:01. Described as above.
A further assay addresses HLA-A*68:02. Described as above.
For assay [1], the target named is HLA-A*69:01. The assay is described as above.
Assay [2] has as its target HLA-B*15:01. The assay is described as above.
Assay [3] deals with HLA-B*18:01. The description is as above.
Another assay deals with HLA-B*27:05. The assay is described as above.
The target in assay [4] is HLA-B*39:01. The assay is described as above.
The target in assay [5] is HLA-B*40:01. The assay is described as above.
The target of the next assay is HLA-B*44:02. Described as above.
In assay [6] the target is HLA-B*46:01. The description is as above.
Another assay has as its target HLA-B*48:01. The assay is described as above.
In assay [7] the target is HLA-B*57:01. The assay is described as above.
A further assay has as its target HLA-B*58:01. The description is as above.
Another assay addresses HLA-A*26:01. Description: IEDB peptide-MHC binding, purified MHC/competitive/fluorescence; filed as Kd, often an IC50 or EC50 that approximates it; ≥ and ≤ were set here for values at or beyond the usual limits of such assays.
The target of the next assay is HLA-B*15:17. The description is as above.
Another assay addresses HLA-B*27:03. The description is as above.
Assay [8] concerns the target HLA-B*51:01. The description is as above.
In assay [9] the target is HLA-B*51:01. Description: IEDB peptide-MHC binding, purified MHC/direct/fluorescence; filed as Kd, often an IC50 or EC50 that approximates it; ≥ and ≤ were set here for values at or beyond the usual limits of such assays.
Another assay deals with HLA-A*30:01. Briefly: IEDB peptide-MHC binding, purified MHC/competitive/radioactivity; filed as Kd, often an IC50 or EC50 that approximates it; ≥ and ≤ were set here for values at or beyond the usual limits of such assays. Particulars: source organism: Dengue virus 2 Jamaica/1409/1983.
The target of assay [10] is HLA-B*40:01. The assay is described as above. Particulars: source organism: Dengue virus 2 Jamaica/1409/1983.
In another assay the target is HLA-A*11:01. Briefly: IEDB peptide-MHC binding, purified MHC/direct/fluorescence; filed as Kd, often an IC50 or EC50 that approximates it; ≥ and ≤ were set here for values at or beyond the usual limits of such assays. The settings on record: source organism: Yellow fever virus.
The target in another assay is HLA-B*07:02. The assay is described as above.
Assay [11] concerns the target HLA-A*69:01. Description: IEDB peptide-MHC binding, purified MHC/competitive/fluorescence; filed as Kd, often an IC50 or EC50 that approximates it; ≥ and ≤ were set here for values at or beyond the usual limits of such assays. Particulars: source organism: Zaire ebolavirus.
The target of assay [12] is HLA-B*15:01. The description is as above. Particulars: source organism: Zaire ebolavirus.
The target of assay [13] is HLA-B*18:01. Described as above. Particulars: source organism: Zaire ebolavirus.
Assay [14] concerns the target HLA-B*39:01. Described as above. Particulars: source organism: Zaire ebolavirus.
The target of assay [15] is HLA-B*46:01. The assay is described as above. Particulars: source organism: Zaire ebolavirus.
The target of assay [16] is HLA-B*57:01. Described as above. The settings on record: source organism: Zaire ebolavirus.
Setting [17] is: source organism: Sudan virus - Boniface, Sudan,1976.
[18] abbreviates: source organism: Sudan ebolavirus.
The mark [19] stands for this setting: source organism: Yellow fever virus.
Setting [20] is: source organism: Zaire ebolavirus.
Setting [21] is: source organism: Reston ebolavirus - Reston.

As for TMMRHRREL, the Kd in the assay with HLA-A*01:01 (setting [17]), in the assay with HLA-A*02:01 (setting [17]), with HLA-A*02:03 (setting [18]), with HLA-A*02:11, with HLA-A*02:12 (setting [18]) and with HLA-A*02:19 was at least 20 µM in each case. Besides, the Kd with HLA-A*03:01 (setting [17]), in the assay with HLA-A*24:03 (setting [18]), with HLA-A*29:02 (setting [17]), in the assay with HLA-A*31:01 (setting [17]), in the assay with HLA-A*68:02 (setting [18]) and in the assay with HLA-A*69:01 [1] (setting [17]) was at least 20 µM throughout. Further, the Kd in the assay with HLA-B*15:01 [2] (setting [17]), with HLA-B*18:01 [3] (setting [17]), with HLA-B*27:05 (setting [17]), with HLA-B*39:01 [4] (setting [17]), with HLA-B*40:01 [5] (setting [17]) and with HLA-B*44:02 (setting [17]) was at least 20 µM each time. Besides, the Kd with HLA-B*46:01 [6] (setting [17]), in the assay with HLA-B*48:01 (setting [17]), in the assay with HLA-B*57:01 [7] (setting [17]), with HLA-B*58:01 (setting [17]), with HLA-A*26:01 (setting [18]) and with HLA-B*15:17 (setting [18]) was at least 20 µM in each case. Also, the Kd with HLA-B*27:03 (setting [18]) and with HLA-B*51:01 [8] (setting [18]) was at least 20 µM each time.
Regarding RERLSRMAI, the Kd in the assay with HLA-B*51:01 [9] (source organism: dengue virus type 2) was at least 20 µM; in the assay with HLA-A*30:01, 0.828 µM; with HLA-B*40:01 [10], 0.0296 µM.
Regarding TKDTNDNNL, the Kd in the assay with HLA-A*01:01 (setting [19]), with HLA-A*02:01 (setting [19]), with HLA-A*03:01 (setting [19]), in the assay with HLA-A*11:01, with HLA-A*29:02 (setting [19]) and in the assay with HLA-A*31:01 (setting [19]) was at least 20 µM each time. Further, the Kd in the assay with HLA-A*69:01 [1] (setting [19]), with HLA-B*07:02 (setting [19]), with HLA-B*15:01 [2] (setting [19]), in the assay with HLA-B*18:01 [3] (setting [19]), in the assay with HLA-B*27:05 (setting [19]) and with HLA-B*40:01 [5] (setting [19]) was at least 20 µM throughout. The Kd with HLA-B*44:02 (setting [19]), with HLA-B*46:01 [6] (setting [19]), with HLA-B*48:01 (setting [19]), with HLA-B*57:01 [7] (setting [19]) and in the assay with HLA-B*58:01 (setting [19]) was at least 20 µM each time.
As to KLWTSISCA, the Kd is 0.0082 µM in the assay with HLA-A*02:01 (source organism: Sudan ebolavirus - Maleo (1979)); at least 20 µM with HLA-A*03:01 (setting [20]); at least 20 µM with HLA-A*24:03 (setting [20]); at least 20 µM with HLA-A*29:02 (setting [20]); at least 20 µM with HLA-A*68:02 (setting [20]); at least 20 µM with HLA-A*26:01 (setting [20]). Besides, the Kd with HLA-A*69:01 [11], with HLA-B*15:01 [12], with HLA-B*15:17 (setting [20]), with HLA-B*18:01 [13], in the assay with HLA-B*27:03 (setting [20]) and with HLA-B*39:01 [14] was at least 20 µM throughout. For the same sequence, the Kd in the assay with HLA-B*46:01 [15], with HLA-B*51:01 [8] (setting [20]) and in the assay with HLA-B*57:01 [16] was at least 20 µM in each case.
As to RVSSDQSAL, in the assay with HLA-B*51:01 [9] (source organism: Yellow fever virus 17D), the Kd is at least 20 µM.
With SKLRALLTL, the Kd with HLA-A*01:01 (setting [21]), with HLA-A*02:01 (setting [21]), in the assay with HLA-A*02:03 (setting [20]), with HLA-A*02:12 (setting [20]), with HLA-A*03:01 (setting [21]) and with HLA-A*24:03 (setting [20]) was at least 20 µM each time. For the same sequence, the Kd with HLA-A*29:02 (setting [21]), with HLA-A*31:01 (setting [21]), with HLA-A*68:02 (setting [20]), with HLA-A*69:01 [1] (setting [21]), in the assay with HLA-B*07:02 (setting [21]) and with HLA-B*15:01 [2] (setting [21]) was at least 20 µM in each case. Also, the Kd is at least 20 µM in the assay with HLA-B*18:01 [3] (setting [21]); 0.618 µM with HLA-B*39:01 [4] (setting [21]); at least 20 µM with HLA-B*40:01 [5] (setting [21]); at least 20 µM in the assay with HLA-B*44:02 (setting [21]); at least 20 µM with HLA-B*46:01 [6] (setting [21]); at least 20 µM with HLA-B*57:01 [7] (setting [21]). The Kd with HLA-B*58:01 (setting [21]), in the assay with HLA-A*26:01 (setting [20]), with HLA-B*15:17 (setting [20]), with HLA-B*27:03 (setting [20]) and with HLA-B*51:01 [8] (setting [20]) was at least 20 µM each time.
